Data from the DeepSol protein solubility set.

assay: soluble on expression in E. coli; label from the status in PepcDB or PDB records

Sequence	soluble on expression in E. coli
MTKRSDSVAPKERINIKYVPATGDEQAEVELPHKMMVLGDFGLDDSRSLEDRQVMRIDKHTFNNVLNDADVSLAMSVPSALDATPNAELAVNLQFKSIQDFGPDRIARQVPELNKLLQLREALVALKGPLGNVPTFRKQLQQLLNDAHARKQLAQELDLVLEAPKAD	not soluble
GSHMSETDLLMKMVRQPVKLYSVATLFHEFSEVITKLEHSVQKEPTSLLSEENWHKQFLKFAQALPAHGSASWLNLDDALQAVVGNSRSAFLHQLIAKLKSRHLQVLELNKIGSEPLDLSNLPAPFYVLLPESFAARITLLVQDKALPYVRVSMEYWHALEYKGELNDPAANKARKEAELAAATAEQ	soluble
METVPGGRWVAEIYGCDVDILEDPKMVEAALVDAVMRLGAPRDSVQSVVYKFHPQGLSAAVVSPVAAVMIHTWPEDNASATLDLYFYRDGVDPEEVLKGLTRAFGAKEESAFRYWRGTEHAIKRRGFGAEKAE	soluble
MTDKPTYEQTLRGNAIRAISACDLDEKVRLARETASRWFARALSVRSPLDPPLPERPGRPEKPELVPPRMLKKRSLNTEHGRIALMHALAHIELNAIDLALDIVARFAVKPIPRSFFDGWMKVADDEARHFTLLRNRLKSLGADYGDMPAHDGLWQSAHQTRNDLEARLAVVPLILEARGLDVTPSLLEKMIETGDHETAAILNIIYNDEKTHVAVGAKWFRFFCARNRIDPAARFRELVRANFRGELKPPFNELARAEAGLTPSFYRSLSPVSILEHHHHHH	not soluble
MGSDKIHHHHHHMNQTLRIGSGAAWWGDRVEPAALNAEHGALDYLCFETMAEATVSAAQVRLRRDSSFAGYDTYLDERMRAVLPACMRHGTRIISNQGWINPTGAAERIVQLLRDAGQHGVRVAAVCGSLITDRVLELADRVLENGAPVRSLAPDLISAEVYLGAEPIVAALRAGAQIVVTGRVADPSIFLAPMMHGFGWDPLDHERVGAGSAIGHLLECGAQVTGGYFCDPGFKELPEPWNFAFPIAEVQSDGTAVITKVAGSGGGVTLQTVKEQMLYEVHDPANYLTPDVVVDFTQARLEQIGPDRVRVTGLTGKPRTPTLKVTIGCAEGFIGEDMFFYAGPGALRRAQWARKILQERFRIVQLQAEELRIDFLGLNAIHGAATPADAVEPYEVAVRVAARTKTRAEAAKVGREVDGMAVSGIAHTGKRVPHQERWREVIGLWSALVPREAVPAHICYFES	not soluble
MSKYAILGLVLVGTVASLDFIGRTQSAAIKGRLVCEGKPASGVKVKLMESDNSFGPGFLDSDDKMASGKADSHGEFNLSGSTKEITGIEPYLVVFHDCKDGITPCQRVFRVNVPKSYTNSGSSAKKTYDAGVIELAGKYPGETRSCLN	not soluble
MSSVAVLTQESFAEHRSGLVPQQIKVATLNSEEESDPPTYKDAFPPLPEKAACLESAQEPAGAWGNKIRPIKASVITQVFHVPLEERKYKDMNQFGEGEQAKICLEIMQRTGAHLELSLAKDQGLSIMVSGKLDAVMKARKDIVARLQTQASATVAIPKEHHRFVIGKNGEKLQDLELKTATKIQIPRPDDPSNQIKITGTKEGIEKARHEVLLISAEQDKRAVERLEVEKAFHPFIAGPYNRLVGEIMQETGTRINIPPPSVNRTEIVFTGEKEQLAQAVARIKKIYEEKKKKTTTIAVEVKKSQHKYVIGPKGNSLQEILERTGVSVEIPPSDSISETVILRGEPEKLGQALTEVYAKANSFTVSSVAAPSWLHRFIIGKKGQNLAKITQQMPKVHIEFTEGEDKITLEGPTEDVSVAQEQIEGMVKDLINRMDYVEINIDHKFHRHLIGKSGANINRIKDQYKVSVRIPPDSEKSNLIRIEGDPQGVQQAKRELLELASRMENERTKDLIIEQRFHRTIIGQKGERIREIRDKFPEVIINFPDPAQKSDIVQLRGPKNEVEKCTKYMQKMVADLVENSYSISVPIFKQFHKNIIGKGGANIKKIREESNTKIDLPAENSNSETIIITGKRANCEAARSRILSIQKDLANIAEVEVSIPAKLHNSLIGTKGRLIRSIMEECGGVHIHFPVEGSGSDTVVIRGPSSDVEKAKKQLLHLAEEKQTKSFTVDIRAKPEYHKFLIGKGGGKIRKVRDSTGARVIFPAAEDKDQDLITIIGKEDAVREAQKELEALIQNLDNVVEDSMLVDPKHHRHFVIRRGQVLREIAEEYGGVMVSFPRSGTQSDKVTLKGAKDCVEAAKKRIQEIIEDLEAQVTLECAIPQKFHRSVMGPKGSRIQQITRDFSVQIKFPDREENAVHSTEPVVQENGDEAGEGREAKDCDPGSPRRCDIIIISGRKEKCEAAKEALEALVPVTIEVEVPFDLHRYVIGQKGSGIRKMMDEFEVNIHVPAPELQSDIIAITGLAANLDRAKAGLLERVKELQAEQEDRALRSFKLSVTVDPKYHPKIIGRKGAVITQIRLEHDVNIQFPDKDDGNQPQDQITITGYEKNTEAARDAILRIVGELEQMVSEDVPLDHRVHARIIGARGKAIRKIMDEFKVDIRFPQSGAPDPNCVTVTGLPENVEEAIDHILNLEEEYLADVVDSEALQVYMKPPAHEEAKAPSRGFVVRDAPWTASSSEKAPDMSSSEEFPSFGAQVAPKTLPWGPKR	soluble
MGSDKIHHHHHHMSRLVRSATLSRYTEVARSVGLDPLRILAEVGLPRTCLDAGDNLVSANAVCRLLEMSAADSDAEDFGLRMGEGRQLSVLGPLGMAVRDSPTLRDALGAMVRYITLHSEALFLGVEEREGALVIRVSLIVEHAGSTRQADEMVVVSLYRMLQELIGPGWRARRICLSHEAPRSLASHLRVFGRAVDFGCDFNGIVCELKDMDAMPRAARPELAQYAHAYLDSLSARATLSMTENVRRMVLSLLPSGNCSVERVASQLGVDRRTVHRKLLQEGASFSSILDEVRATLALQYLRHLERPVSYVAVLLGFSMQSAFSRWFRDHFGCSPSAWRSEGMQPARPVPRQPLLAASPEQRM	not soluble
NYYERHIGDYARDTGYLSVLEHGIYCLLLDRYYATEQPIPANKAHRIARAHSKKEKSAVDVVLDEFFLLQ	not soluble
MHYPEPISKLIDSFMKLPGIGPKTAQRLAFHTLDMKEDDVVQFAKALVDVKRELTYCSVCGHITENDPCYICEDKQRDRSVICVVEDDKDVIAMEKMREYKGLYHVLHGSISPMDGIGPEDINIPSLIERLKSDEVSELILAMNPNLEGESTAMYISRLVKPIGIKVTRLAQGLSVGGDLEYADEVTLSKAIAGRTEM	not soluble
MGSDKIHHHHHHMGLLLKTAASPFACSSGMQNFIANPELESYLRLNRAACGEWTLALQDLLGCSGLACDLSRPKEEVGSLSALGVGGGLVAALSVRQGLELQHCRLESVLLVFPVQGHCELLSDGAAANTLLPFQLILPGQTFSLRVTAESRLLLLMPAEQPQAVQLAAATSEAITLSIQRFLYQAGFLQDHHQGCQAAETVLREVREILAGSSGVTKVTEAVPEPDRRLLKAISKIRTEPDWPFDLQELSSHAGVSERNLYYLMKRQTGMTPYRYYQRCRLIRVRRRLVDCQCAVPHISRYAGDEGFSHFGRFAALYREHFGELPSETVQWRRRLQAQELLAPALS	not soluble
MTALTIKDLRYKHNQRMILQNVQLTLAPSKIVGLLGENGAGKTTLMRLITGSAKGQGSIVINGATTAVARKQQVSFTDHLTGFSAGMKLQQIAQFYQLVYPDFDAKRYQELVDFLELNQQQKLGELSKGTREKLIIALTLSRKVALYLLDEPFSGIDSMSRKKIINSIIKWTPAEATLLISDHYVTEIAPILDEIVVVKDQTIVVHQGADEIRDEHGMELEDYYESLYMGGVTDDK	not soluble
MAEPKKLANGKWQLRFKYKDSITNEWKNKMITRSTKKACRDAETEFKSKIMRGENTEAIKLLDFYDIWVDTFKKNKVSAGRMQKIALTRKNLHDFFGDKQLLKGVTKVKYQQWINWLAKPGNINEKGLAVETVSNRHNIVKSMFLEALDMQYIHSNPTRNIKLTGQVPEKKSNKTISIDDLTKFKEALLSRENTTSKYFILVQLYTGARYQEVAALTWDSIDESNEVIKIKNAYKYDAGQYRIGPTKSEAGVRNIDVPSSLFYYLKKYEMEQKKKILRGDLRNPQNFAFVSKKNSWPISNSSVNKYIKETCELANIERISSHSFRHARSDLLILAEADPIYIKTQLGHKEIIQSYEYASATEANRKKNKEKYENKYKDIL	not soluble
MAHHHHHHMNFVFIYIVLISFFNKSRCDNELSVKGSLTVANLKISSKNNQENGILFVNEESEYKIGLNERSELIISKKKKPLVTIDEHENLNFFNLDLSVKILNIQGILKIMNVNQFQMFVHEDFSNSSNTKGWIGDQFFNYTSSCGGINLLGGYGKLSKGEIYKTFENIPSHSQIRIKCNFHFIDNWDNQTAYMKITTDEKEEKYYVWTDTHSQINKQNSINICGNTTGESKFFSIIDIIIPHNSNKLIIYFGTNIQKDEPNLISWGISNFQIYLI	not soluble
MAHHHHHHMYYADVDYEVPSRVVQLTDATFDTIVMDPTKDVFVLYCVTWSRHCRSAVKLWADLSISQFKRPTADTFVAALIDAEAFPETAKRMGVKSYPTMLFYTRLEKATPLEYNGQGLLPLLDSFVFQNS	not soluble
MSLARNVPEFGMESYRIEVGRMHGVKPANIVGAIANEAGLESRYIGRIDIRDDHSVLDLPAEMPHEILQHLKKVWVSGQQLQMRRIDTTETEGHHHHHH	soluble
MNSHDGSNFSNKFSAHKDVVEDLLRKDTVGLVTFQDFRARREYLERCAVAEAACQNASRRAEELETKKKRVKRANLSRLSFGDSLEDQEENSVEFAKITRFASSKKANGVGFNTSGQDIVKEPDVFSPKEEGFFGKQNRKIGMDPGVDTSFLPDRDREQEERLERERLKQQWLSEQERVKNEEIDIIYSIWDGRGQRKLLSCKKGTTIAKFLSIVQQKVSTLKHCKVEDLMFIKEDMIIPHHLSFYDLISMKARGKNGSLFCFDVHEDIRIRNDASVEKDDSHAAKVVERRWYERNKHIYPASMWEVFDVSKNYGRVQKDFFGN	soluble
MTSKTNMTSNKFAYDFFPWSNDTNSSQQIKNIKPPPKRSNRPTKRTTFTSEQVTLLELEFAKNEYICKDRRGELAQTIELTECQVKTWFQNRRTKKRSSELKFGTACSENKTSTKWYYDSKLLFCYPYKYLGCGEGSNSFESNENCLESCKPADQFSCGGNTGPDGVCFAHGDQGCKKGTVCVMGGMVGFCCDKKIQDEWNKENSPKCLKGQVVQFKQWFGMTPLIGRSCSHNFCPEKSTCVQGKWTAYCCQ	soluble
MSEDYADLHDPNAEYTMRELSAETMGADSGRPAPRDLEITDIQTTMVDGNFPWTLVRVYTDAGVVGTGEAYWGAGVPELIERMTPFVVGENPLDIDRLFEHLVQKMSGEGSVEGVTVTAISGIEVALHDLAGKVLGVPAYQLLGGKYRDEVRVYCDCHTAAEADPEACADEAERVVDDLGYDALKFDLDVPSGLEKDRANRHLRPGEIRHKADIVAAVTERVRDRADVAFDCHWTFSGGSAKRLAAELEAYDVWWLEDPVPPENLDVQASVTESTATPIAVGENRYRVTEARRLIENQAVDIVAPDLPKVGGMRETRKIADVANQYYVPVAMHNVASPVATMASAHVGAAIPNALAVEYHSYELGWWSDLVAEDVIEDGSIEVPERPGLGITLDMDAVEEHMVDGETLFDEA	soluble
MGSDKIHHHHHHMKMSWNHQYTNYGSIADDNGDEEKAENSEGAAAEKVEKQHDDDGVVVHEETDGVASSRSSHHDKQKPGETKKSGDGKMDDDDIITTARSSSRRICGSAASSSDSETADDAPLLPDEGPSHAVRLEMPGDKPASPHDRFPKTPLKTL	not soluble
MGHHHHHHSHMDNCLAAAALNGVDRRSLQRSARLALEVLERAKRRAVDWHALERPKGCMGVLAREAPHLEKQPAAGPQRVLPGEREERPPTLSASFRTMAEFMDYTSSQCGKYYSSVPEEGGATHVYRYHRGESKLHMCLDIGNGQRKDRKKTSLGPGGSYQISEHAPEASQPAENISKDLYIEVYPGTYSVTVGSNDLTKKTHVVAVDSGQSVDLVFPV	not soluble
